Experimental data from patent US11534528B2, “Sterilization of self-assembling peptides by irradiation” (3-D Matrix, Ltd., priority 2020, dated 2022).
“And” between values parts separate entries of the source, which are not always exact repeats. Equal values may be shown once.

Legend:
[1] = Appearance of peptide solution before and after irradiation; type: physicochemical; settings: for appearance and pH, summary: after gamma, X-ray and e-beam irradiation at around 25~40 kGy
Protocol: (§1) Samples were irradiated with gamma rays at 23, 25, 28 and 40 kGy with VPTrad Gammacell 220® High Dose Rate Co-60 Irradiator. In some embodiments, the run dose rate and duration time for 40 kGy irradiation were 6.30 kGy/hr and 6 hours 20 minutes 58 seconds, respectively. In other embodiments, the run dose rate and duration time for 28 kGy irradiation were 4.40 kGy/hr and 6 hours 22 minutes 31 seconds, respectively. In other embodiments, the run dose rate and duration time for 25 kGy irradiation were 6.58 kGy/hr and 3 hours 47 minutes 42 seconds, respectively. In other embodiments, the run dose rate and duration time for 23 kGy irradiation were 6.58 kGy/hr and 3 hours 29 minutes 29 seconds, respectively.
(§2) In other embodiments, samples were irradiated with X-ray at 25 kGy and 40 kGy with a Mevex accelerator (10 MeV, 20 kW).
(§3) In other embodiments, samples were irradiated with e-beam at 25 and 40 kGy with a Mevex accelerator (10 MeV, 20 kW).
(§4) Methods and test results: The appearance of PuraStat® was observed after each test. The pH of PuraStat® was tested using an Accumet AB15 pH meter (Fisher Scientific). HPLC tests were performed to evaluate the major peptide content after irradiation tests. Agilent HPLC 1100 (Agilent Technologies) was used for this study. Column temperature was kept at 25° C.

[2] = pH of peptide solution before and after irradiation; type: physicochemical
Protocol: as §1, §2, §3, §4

[3] = HPLC test for major peptide content; type: physicochemical; settings: N = 3, mean ± SD
Protocol: HPLC tests were performed to evaluate the major peptide content after irradiation tests. An Agilent HPLC 1100 (Agilent Technologies) was used for this study. The column temperature was kept at 25° C.
For RADA16 (SEQ ID NO:1) samples, solvent A was water with 0.1% TFA and solvent B was 80% acetonitrile with 0.1% TFA. Gradient of solvent B was controlled from 10% to 40% in 20 min and 40% for another 5 min at 25° C. Agilent Zorbax 300SB-C18 column (4.6 mm×250 mm, 5 μm, 300 Å) was used for this test. PuraStat® (RADA16 (SEQ ID NO:1) 2.5%) (40 mg) was mixed with 10 μL of DH2O and the mixture was vortexed. The mixture was further mixed with 500 μL of formic acid and vortexed. This mixture was then mixed with DH2O (4,450 μL) and vortexed. 20 μL samples were injected using an Agilent autosampler.
For IEIK13 (SEQ ID NO:3) samples, solvent A was water with 0.1% TFA and solvent B was 90% Acetonitrile with 0.1% TFA. The gradient of solvent B was controlled from 20% to 43% in 8 min, from 43% to 70% between 8 and 9.5 min, and from 70% to 95% between 9.5 and 30 min, and 95% for another 5 min at 25° C. An Agilent PLRP-S column (4.6 mm×250 mm, 8 μm, 300 Å) was used for this test. A 1.3% solution of IEIK13 (SEQ ID NO:3) was diluted with water with 0.1% TFA to 0.075% and the mixture was vortexed. 35 μL samples were injected using an Agilent autosampler.
For QLEL12 (SEQ ID NO:4) samples, solvent A was water and solvent B was 80% acetonitrile. The gradient of solvent B was controlled from 20% to 80% in 15 min and 80% for another 7 min at 25° C. An Agilent PLRP-S column (4.6 mm×250 mm, 8 μm, 300 Å) was used for this test. 0.15% w/v of QLEL12 (SEQ ID NO:4) solution was diluted to 0.01% with DH2O and vortexed. 50 μL samples were injected using an Agilent autosampler.
as §4
Solvent A was water with 0.1% TFA and solvent B was 80% Acetonitrile with 0.1% TFA. Gradient of solvent B was controlled from 10% to 40% in 20 min and 40% for another 5 min at 25° C. Agilent Zorbax 300SB-C18 column (4.6 mm×250 mm, 5 μm, 300 Å) was used for this test. PuraStat® (RADA16 (SEQ ID NO:1) 2.5%) (40 mg) were mixed with 10 μL of DH2O and 500 μL of formic acid and vortexed. And the mixture was mixed with DH2O (4,450 μL) and vortexed. 20 μL of samples were injected using an Agilent autosampler.
Agilent HPLC 1100 (Agilent Technologies) was used for this study. Column temperature was kept at 25° C. Agilent Zorbax 300SB-C18 column (4.6 mm×250 mm, […], 300 Å) was used for this test. Solvent A was water with 0.1% TFA and solvent B was 80% Acetonitrile with 0.1% TFA. Gradient of solvent B was controlled from 10% to 40% in 20 min and 40% for another 5 min at 25° C. PuraStat® (40 mg) was mixed with 10 μL of DH2O and 500 μL of formic acid and vortexed, and the mixture was mixed with DH2O (4,450 μL) and vortexed. […] of samples were injected using an Agilent autosampler.

[4] = Mass spectrometry test for degradation of the peptides; type: physicochemical
Protocol: (§5) Mass spectrometry tests were carried out to investigate the degradation of the peptides after irradiation sterilization. An Agilent LC/MSD ion trap mass spectrometer was used for this study. The sample solutions were prepared as described above for the HPLC samples. Each sample was injected at 9 μL/min with a syringe pump. Each mass spectrum was recorded for 1 minute.
as §5, with “sterilization.” for “sterilization. An”, “Mass” for “Each mass”, “minute. The molecular weight of PuraStat® (Ac-(RADA)4-NH2) (SEQ ID NO:1) is 1712, which matches its calculated molecular weight from the major three peaks at m/3=572, m/2=857, and m=1713 in all the spectra of control and irradiated PuraStat® samples.” for “minute.”

[5] = RADA16 in solution; cited from earlier work
[6] = after gamma, X-ray or e-beam irradiation

Ac-IEIKIEIKIEIKI-NH2 [IEIK13]
Appearance ([1]; X-ray irradiation at 25 kGy): Clear and viscous | Appearance ([1]; X-ray irradiation at 40 kGy): Clear and viscous | appearance and pH, summary [1]: remained unchanged | Appearance ([1]; control, not irradiated): Clear and viscous | Appearance ([1]; e-beam irradiation at 25 kGy): Clear and viscous | Appearance ([1]; e-beam irradiation at 40 kGy): Clear and viscous | Appearance ([1]; gamma irradiation at 28 kGy): Clear and viscous | Appearance ([1]; gamma irradiation at 40 kGy): Clear and viscous | pH ([2]; X-ray irradiation at 25 kGy): 3.0 | pH ([2]; X-ray irradiation at 40 kGy): 3.0 | pH ([2]; control, not irradiated): 3.0 | pH ([2]; e-beam irradiation at 25 kGy): 3.0 | pH ([2]; e-beam irradiation at 40 kGy): 3.0 | pH ([2]; gamma irradiation at 28 kGy): 3.0 | pH ([2]; gamma irradiation at 40 kGy): 3.0 | Major peptide content (%) ([3]; X-ray irradiation at 25 kGy): 99.8% and 99.8 ± 0.1% | Major peptide content (%) ([3]; X-ray irradiation at 40 kGy): 99.9% and 99.9 ± 0.1% | Major peptide content (%) ([3]; control, not irradiated): 99.6% and 99.6 ± 0.0% | Major peptide content (%) ([3]; e-beam irradiation at 25 kGy): 99.6% and 99.6 ± 0.2% | Major peptide content (%) ([3]; e-beam irradiation at 40 kGy): 99.8% and 99.8 ± 0.1% | Major peptide content (%) ([3]; gamma irradiation at 40 kGy): 99.8% and 99.8 ± 0.2% | degradation by mass spectrometry analysis [4, 6]: only insubstantially degraded

Ac-KLDLKLDLKLDL-NH2 [KLD12, self-assembling peptide]
Appearance ([1]; X-ray irradiation at 25 kGy): Clear and viscous | Appearance ([1]; X-ray irradiation at 40 kGy): Clear and viscous | appearance and pH, summary [1]: remained unchanged | Appearance ([1]; control, not irradiated): Clear and viscous | Appearance ([1]; e-beam irradiation at 25 kGy): Clear and viscous | Appearance ([1]; e-beam irradiation at 40 kGy): Clear and viscous | Appearance ([1]; gamma irradiation at 40 kGy): Clear and viscous | pH ([2]; X-ray irradiation at 25 kGy): 2.2 | pH ([2]; X-ray irradiation at 40 kGy): 2.2 | pH ([2]; control, not irradiated): 2.2 | pH ([2]; e-beam irradiation at 25 kGy): 2.2 | pH ([2]; e-beam irradiation at 40 kGy): 2.2 | pH ([2]; gamma irradiation at 40 kGy): 2.2

Ac-QLELQLELQLEL-NH2 [QLEL12, self-assembling peptide, degraded by irradiation]
Appearance ([1]; X-ray irradiation at 25 kGy): Clear and watery | Appearance ([1]; X-ray irradiation at 40 kGy): Clear and watery | Appearance ([1]; control, not irradiated): Clear and viscous | Appearance ([1]; e-beam irradiation at 25 kGy): Clear and watery | Appearance ([1]; e-beam irradiation at 40 kGy): Clear and watery | Appearance ([1]; gamma irradiation at 23 kGy): Clear and watery | Appearance ([1]; gamma irradiation at 25 kGy): Clear and watery | Appearance ([1]; gamma irradiation at 40 kGy): Clear and watery | pH ([2]; X-ray irradiation at 25 kGy): 6.3 | pH ([2]; X-ray irradiation at 40 kGy): 5.9 | pH ([2]; control, not irradiated): 7.0 | pH ([2]; e-beam irradiation at 25 kGy): 6.6 | pH ([2]; e-beam irradiation at 40 kGy): 6.5 | pH ([2]; gamma irradiation at 23 kGy): 6.7 | pH ([2]; gamma irradiation at 25 kGy): 6.5 | pH ([2]; gamma irradiation at 40 kGy): 5.9 | Major peptide content (%) ([3]; X-ray irradiation at 25 kGy): 57.0% and 57.0 ± 4.9 % | Major peptide content (%) ([3]; X-ray irradiation at 40 kGy): 47.3% and 47.3 ± 1.3 % | Major peptide content (%) ([3]; control, not irradiated): 90.5% and 90.5 ± 1.3% | Major peptide content (%) ([3]; e-beam irradiation at 25 kGy): 51.9% and 51.9 ± 7.3 % | Major peptide content (%) ([3]; e-beam irradiation at 40 kGy): 55.6% and 55.6 ± 3.0 % | Major peptide content (%) ([3]; gamma irradiation at 40 kGy): 40.7% and 40.7 ± 3.1 % | degradation by mass spectrometry analysis [4, 6]: significantly degraded

Ac-RADARADARADARADA-NH2 [RADA16]
appearance and pH, summary [1]: remained unchanged | Major peptide content (%) ([3]; X-ray irradiation at 25 kGy): 73.8% | Major peptide content (%) ([3]; X-ray irradiation at 40 kGy): 71.9% | Major peptide content (%) ([3]; control, not irradiated): 78.3% | Major peptide content (%) ([3]; e-beam irradiation at 25 kGy): 76.0% | Major peptide content (%) ([3]; e-beam irradiation at 40 kGy): 70.0% | Major peptide content (%) ([3]; gamma irradiation at 23 kGy): 75.5% | Major peptide content (%) ([3]; gamma irradiation at 25 kGy): 74.6% | Major peptide content (%) ([3]; gamma irradiation at 28 kGy): 68.5% | Major peptide content (%) ([3]; gamma irradiation at 40 kGy): 69.7% | degradation by mass spectrometry analysis [4, 6]: not degraded | degradation by mass spectrometry analysis ([4]; autoclave treatment (121° C. for 20 min)): completely degraded | degradation on autoclaving [5]: complete thermal degradation
